# Experimental data from US20130149300A1 (ICON GENETICS, published 2013).
# B1: Anti-Ebola virus produced in -XF plants (antibody)
# heavy: not shown
# light: QLVLTQSSSASASLGASVKLTCTLSRQHSTYTIEWYQQQPAKPPRYVMELKKDGSHSTGDGIPDRFSGSSSGADRYLTISSLQSEDEADYYCGVGDTIKEQFVYVFGTGTKVTVLGQPKAAPSVTLFPPSSEELQANKATLVCLISDFYPGAVTVAWKADSSPVKAGVETTTPSKQSNNKYAASSYLSLTPEQWKSHRSYSCQVTHEGSTVEKTVAPTECS
# B2: Anti-Ebola virus produced in -XF +gal plants (antibody)
# heavy: not shown
# light: B1 light
# B3: Anti-Ebola virus produced in wild type plants (antibody)
# heavy: not shown
# light: B1 light
# Key:
# Recombinant human FcγRI = target: T1, Recombinant human FcγRI (human, UniProt P12314 16-288); experiment: SPR (Biacore), receptor amine-coupled to CM5 chip, mAb flowed, 1:1 fit
# T1 construct: also called FcγRI (CD64); CD64
# [1] = target: T2, Recombinant human FcγRIIIA (human, UniProt P08637 17-208); experiment: as above
# T2 construct: also called FcγRIIIA (CD16); CD16
# human C1q = human C1q (human, UniProt P02745 23-245; P02746 28-253; P02747 29-245); experiment: C1q binding ELISA, mAb coated at 2.5 µg/ml, human C1q added
# human C1q, sequence (P02745 23-245 limits assumed, chain 1 of 3): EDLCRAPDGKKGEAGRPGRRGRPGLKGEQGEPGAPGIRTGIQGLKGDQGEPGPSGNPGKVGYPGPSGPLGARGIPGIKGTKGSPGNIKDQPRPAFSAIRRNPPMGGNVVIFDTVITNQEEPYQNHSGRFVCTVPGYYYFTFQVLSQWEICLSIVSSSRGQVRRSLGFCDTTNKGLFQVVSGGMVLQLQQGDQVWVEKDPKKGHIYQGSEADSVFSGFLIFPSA
# human C1q, sequence (P02746 28-253 limits assumed, chain 2 of 3): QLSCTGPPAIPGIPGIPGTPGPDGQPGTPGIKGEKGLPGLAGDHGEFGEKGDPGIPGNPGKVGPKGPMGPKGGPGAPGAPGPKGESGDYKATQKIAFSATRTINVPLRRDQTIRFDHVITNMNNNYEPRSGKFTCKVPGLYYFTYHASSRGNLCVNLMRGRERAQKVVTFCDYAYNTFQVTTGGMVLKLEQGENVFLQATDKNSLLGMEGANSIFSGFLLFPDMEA
# human C1q, sequence (P02747 29-245 limits assumed, chain 3 of 3): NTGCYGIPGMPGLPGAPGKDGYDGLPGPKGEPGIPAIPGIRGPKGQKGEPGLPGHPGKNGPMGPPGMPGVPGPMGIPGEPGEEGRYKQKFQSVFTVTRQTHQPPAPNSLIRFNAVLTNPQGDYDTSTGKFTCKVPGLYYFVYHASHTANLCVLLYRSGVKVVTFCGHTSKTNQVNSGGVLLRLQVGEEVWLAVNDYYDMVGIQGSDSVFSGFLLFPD
# T1 sequence (P12314 16-288 limits assumed): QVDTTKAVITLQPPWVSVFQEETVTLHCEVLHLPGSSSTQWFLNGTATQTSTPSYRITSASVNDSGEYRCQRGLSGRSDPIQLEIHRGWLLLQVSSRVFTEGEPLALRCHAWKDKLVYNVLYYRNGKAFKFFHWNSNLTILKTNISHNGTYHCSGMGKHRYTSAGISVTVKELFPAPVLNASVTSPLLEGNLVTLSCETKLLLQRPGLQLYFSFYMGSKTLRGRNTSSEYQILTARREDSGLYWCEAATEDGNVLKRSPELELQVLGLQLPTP
# T2 sequence (P08637 17-208 limits assumed): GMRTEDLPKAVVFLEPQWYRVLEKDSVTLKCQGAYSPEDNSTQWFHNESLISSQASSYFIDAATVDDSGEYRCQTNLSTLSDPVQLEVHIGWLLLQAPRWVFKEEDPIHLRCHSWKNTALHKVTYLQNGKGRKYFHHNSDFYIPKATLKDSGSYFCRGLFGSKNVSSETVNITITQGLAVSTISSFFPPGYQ
Binder,Kd (Recombinant human FcγRI) [nM],Kd [1] [nM],Absorbance (human C1q) [absorbance at 450 nm]
B1,16,25,0.49
B2,15,26,0.96
B3,42,72,0.92
